± gives the uncertainty stated by the source.

This data set in a line: abundance fitness (aPCA) (normalised: wild type 0, dead -1); higher = more abundant; growth selection in yeast, the domain comes from the species named. The note with it: Homo sapiens.
“DnaJ homolog subfamily B member 1 Y6W, P25685”: the abundance fitness is -0.204 ± 0.13.
In turn, “DnaJ homolog subfamily B member 1 Y24A, P25685” yielded an abundance fitness of -0.686 ± 0.24.
As to “DnaJ homolog subfamily B member 1 Y24C, P25685”, the abundance fitness is -0.504 ± 0.086.
As for “DnaJ homolog subfamily B member 1 Y24D, P25685”, the figure is -0.654 ± 0.16.
As for “DnaJ homolog subfamily B member 1 Y24E, P25685”, the figure is -0.411 ± 0.1; as for “DnaJ homolog subfamily B member 1 Y24F, P25685”, -0.075 ± 0.2; as for “DnaJ homolog subfamily B member 1 Y24G, P25685”, -0.499 ± 0.1.
The substance “DnaJ homolog subfamily B member 1 Y24H, P25685” showed an abundance fitness of -0.38 ± 0.2.
“DnaJ homolog subfamily B member 1 Y24I, P25685” displayed an abundance fitness of -0.788 ± 0.2.
As for “DnaJ homolog subfamily B member 1 Y24K, P25685”, the figure is -0.358 ± 0.099; as for “DnaJ homolog subfamily B member 1 Y24L, P25685”, -0.492 ± 0.061; as for “DnaJ homolog subfamily B member 1 Y24M, P25685”, -0.223 ± 0.074.
For the substance “DnaJ homolog subfamily B member 1 Y24N, P25685”, the abundance fitness was -0.408 ± 0.11.
For “DnaJ homolog subfamily B member 1 Y24Q, P25685”, the abundance fitness was -0.547 ± 0.091.
As for “DnaJ homolog subfamily B member 1 Y24R, P25685”, the figure is -0.404 ± 0.055; as for “DnaJ homolog subfamily B member 1 Y24S, P25685”, -0.464 ± 0.055.
In the case of “DnaJ homolog subfamily B member 1 Y24T, P25685” it was -0.427 ± 0.08; in that of “DnaJ homolog subfamily B member 1 Y24V, P25685”, -0.547 ± 0.09; in that of “DnaJ homolog subfamily B member 1 Y24W, P25685”, -0.159 ± 0.079.
Substance “DnaJ homolog subfamily B member 1 Y31A, P25685” displayed an abundance fitness of -0.175 ± 0.12.
As for “DnaJ homolog subfamily B member 1 Y31D, P25685”, the figure is -0.27 ± 0.16; as for “DnaJ homolog subfamily B member 1 Y31E, P25685”, -0.294 ± 0.089.
As for “DnaJ homolog subfamily B member 1 Y31F, P25685”, the figure is -0.347 ± 0.17; as for “DnaJ homolog subfamily B member 1 Y31G, P25685”, -0.302 ± 0.1; as for “DnaJ homolog subfamily B member 1 Y31H, P25685”, -0.494 ± 0.21.
In the case of “DnaJ homolog subfamily B member 1 Y31I, P25685” it was -0.259 ± 0.052; in that of “DnaJ homolog subfamily B member 1 Y31L, P25685”, -0.16 ± 0.063; in that of “DnaJ homolog subfamily B member 1 Y31M, P25685”, -0.164 ± 0.092.
“DnaJ homolog subfamily B member 1 Y31N, P25685” yielded an abundance fitness of -0.287 ± 0.14.
“DnaJ homolog subfamily B member 1 Y31P, P25685” gave an abundance fitness of -0.537 ± 0.095.
The substance “DnaJ homolog subfamily B member 1 Y31Q, P25685” yielded an abundance fitness of -0.181 ± 0.12.
As for “DnaJ homolog subfamily B member 1 Y31R, P25685”, the figure is -0.401 ± 0.086; as for “DnaJ homolog subfamily B member 1 Y31T, P25685”, -0.369 ± 0.12.
The substance “DnaJ homolog subfamily B member 1 Y31V, P25685” registered an abundance fitness of -0.234 ± 0.12.
In the case of “DnaJ homolog subfamily B member 1 Y31W, P25685” it was -0.188 ± 0.1; in that of “DnaJ homolog subfamily B member 1 Y52A, P25685”, -0.265 ± 0.083.
As for “DnaJ homolog subfamily B member 1 Y52C, P25685”, the figure is -0.404 ± 0.21.
Substance “DnaJ homolog subfamily B member 1 Y52D, P25685” returned an abundance fitness of -0.3 ± 0.17.
As for “DnaJ homolog subfamily B member 1 Y52E, P25685”, the figure is -0.441 ± 0.069; as for “DnaJ homolog subfamily B member 1 Y52F, P25685”, 0.076 ± 0.091; as for “DnaJ homolog subfamily B member 1 Y52G, P25685”, -0.194 ± 0.077.
As for “DnaJ homolog subfamily B member 1 Y52H, P25685”, the figure is -0.03 ± 0.3.
“DnaJ homolog subfamily B member 1 Y52K, P25685”: the abundance fitness is -0.337 ± 0.13.
As to “DnaJ homolog subfamily B member 1 Y52L, P25685”, the abundance fitness was -0.39 ± 0.071.
Consider “DnaJ homolog subfamily B member 1 Y52M, P25685”, for which the abundance fitness is -0.049 ± 0.091.
For the substance “DnaJ homolog subfamily B member 1 Y52N, P25685”, the abundance fitness was -0.195 ± 0.14.
In turn, “DnaJ homolog subfamily B member 1 Y52P, P25685” gave an abundance fitness of -0.466 ± 0.1.
The substance “DnaJ homolog subfamily B member 1 Y52Q, P25685” returned an abundance fitness of -0.306 ± 0.11.
For “DnaJ homolog subfamily B member 1 Y52R, P25685”, the abundance fitness was -0.305 ± 0.071.
In turn, “DnaJ homolog subfamily B member 1 Y52S, P25685” gave an abundance fitness of -0.332 ± 0.058.
“DnaJ homolog subfamily B member 1 Y52T, P25685” showed an abundance fitness of -0.333 ± 0.089.
In turn, “DnaJ homolog subfamily B member 1 Y52V, P25685” returned an abundance fitness of -0.249 ± 0.089.
Turning to “DnaJ homolog subfamily B member 1 Y52W, P25685”, the abundance fitness is 0.005 ± 0.074.

Values taken from the Human Domainome abundance scans (Beltran et al. 2025).
